Assay results taken from US20070071742A1 (PERLAN THERAPEUTICS, published 2007).
Changes are numbered by the printed parent chain.

B1: HumA humanized 1A6 scFv (scFv, not shown: large carriers)
scFv: DIQMTQSPSSLSASVGDRVTITCRASQSISNNLHWYQQKPGKAPKLLIYHASQSISGVPSRFSGSGSGTDFTLTISSLQPEDFATYYCQQSNSWPYTFGQGTKVEIKRGGGGSGGGGSGGGGSGGGGSEVQLVESGGGLVQPGGSLRLSCAASGFNIKDTYIHWVRQAPGKGLEWVARIDPANDNTIYADSVKGRFTISSDDSKNTAYLQMNSLRAEDTAVYYCTDSGYWFAYWGQGTLVTVSS
B2: HumC humanized 1A6 scFv (scFv, not shown: large carriers)
scFv: B1 scFv with S200G, D226T
B3: HumB humanized 1A6 scFv (scFv, not shown: large carriers)
scFv: B1 scFv with D226A

The binders below were run against ICAM-1 on HeLa cells (UniProt P05362 28-532, limits assumed) (assay: cell-based or functional assay).
Chain of ICAM-1 on HeLa cells (P05362 28-532 limits assumed): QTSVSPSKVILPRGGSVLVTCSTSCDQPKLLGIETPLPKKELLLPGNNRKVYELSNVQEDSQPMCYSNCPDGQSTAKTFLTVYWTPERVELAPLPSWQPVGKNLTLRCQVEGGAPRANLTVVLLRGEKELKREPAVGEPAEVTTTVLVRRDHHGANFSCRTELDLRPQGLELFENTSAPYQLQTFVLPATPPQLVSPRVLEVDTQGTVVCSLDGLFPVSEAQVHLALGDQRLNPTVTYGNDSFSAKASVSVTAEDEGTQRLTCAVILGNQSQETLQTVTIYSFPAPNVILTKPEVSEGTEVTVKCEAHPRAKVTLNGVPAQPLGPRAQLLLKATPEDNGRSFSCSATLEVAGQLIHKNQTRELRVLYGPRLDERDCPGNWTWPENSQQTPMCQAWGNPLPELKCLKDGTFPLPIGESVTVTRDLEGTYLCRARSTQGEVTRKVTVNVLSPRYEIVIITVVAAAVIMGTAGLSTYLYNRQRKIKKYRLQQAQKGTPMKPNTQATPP
With B1 the “EC 50 (µM): 50% protection of HeLa cells against HRV15 infection at 1 MOI” value (from here on “EC 50 (µM): 50% protection of HeLa cells”) was 2.8 µM.
B2 was tested, and the “EC 50 (µM): 50% protection of HeLa cells” value was 0.22 µM.
B3 was tested, and the “EC 50 (µM): 50% protection of HeLa cells” value was 0.19 µM.
